Data set [1] has as its target mTTYH3 ECD1-T4L-ECD2 (mouse | bacteriophage T4) (UniProt Q6P5F7). Kind of data set: cross-linking.
Another data set concerns the target EGFP fusion of KCNH1 (UniProt O95259). Put plainly: single-molecule subunit counting.
The data set “SEC” concerns the molecule itself. Put plainly: SEC. Background: SEC sorts molecules by how far they enter the pores of the column.
The data set “native gel or EMSA” concerns the molecule itself. Kind of data set: native gel or EMSA. For orientation: Mobility shift assays separate free from complexed probe on a gel.
Data set [2] concerns the molecule itself. Put plainly: single-molecule subunit counting.

These results are taken from publication doi:10.1101/2021.09.05.459021 (bioRxiv, 2021).

Values joined by “and” are separate entries in the source; they are usually repeats but may differ in a detail not shown here. Equal values may be shown once.

For orientation: stoichiometry N means a count of units in the complex or per binding partner. As to “mTTYH3 ECD1-T4L-ECD2 (from UniProt Q6P5F7 107-209; Q6P5F7 260-386) (domain or fragment)”, in data set [1], the stoichiometry N was determined as 4.

Molecule “EGFP fusion of KCNH1 (from UniProt O95259 1-989) (natural protein)” displayed a stoichiometry N in the data set with EGFP fusion of KCNH1 of 4.

B1: mTTYH3-EGFP (C-terminal EGFP fusion of mouse TTYH3), expressed in HEK 293 cells (natural protein, UniProt Q6P5F7 1-524, looked up)
chain: MAGVSYAAPWWVSLLHRLPHFDLRWEATSSQFRPEDADYQQALLLLGATALACLALDLLFLLFYSFWLCCRRRKTDEHLDADCCCTAWCVIITTLVCSAGIAVGFYGNGETSDGIHRATYSLRHANRTVAGVQDRVWDTAAALNRTAEPNLQSLERQLAGRQEPLRAVQRLQTLLGTLLGYTAAIPFWRNPGVSLEVLAEQVDLYDWYRWLGYLGLLLLDVIICLLVLVGLIRSSKGILVGVCLLGVLALVISWGALGLELAVSVGSSDFCVDPDTFVTKMVEEHSVLSGDILQYYLACSPRATNPFQQKLSGSHKALVEMQDVVAELLRNVPREHPATKDPLLRVQEVLNGTEVNLQHLTALVDCRSLHLDYVQALTGFCYDGVEGLIYLALFSFVTALMFSSIVCSIPHTWQQKRGPDDDGEEETAPGPRQAHDSLYRVHMPSLYSCGSSYGSEASIPAAAHTVSNAPVTEYMSQNANFQNPRCENTPLIGRESPPPSYTSSMRAKYLATSQPRPDSSGSGH
For the molecule B1, in the data set “SEC”, the “ratio of tetramers to dimers” value was about 1.5; the “stoichiometry N” value is 4 and 2.

B2: FLAG-tagged mouse TTYH3 (mTTYH3) (natural protein, UniProt Q6P5F7 1-524, looked up)
chain: B1 chain
Consider B2, for which the “stoichiometry N” value in the data set “native gel or EMSA” was 2 and 4.

B3: mTTYH3-EGFP (C-terminal EGFP fusion of mouse TTYH3), expressed in Xenopus oocytes (natural protein, UniProt Q6P5F7 1-524, looked up)
chain: B1 chain
Turning to B3, the “stoichiometry N” value in data set [2] is 4.

B4: mTTYH1-EGFP (C-terminal EGFP fusion of mouse TTYH1), expressed in HEK 293 cells (natural protein, UniProt Q9D3A9 1-450, looked up)
chain: MGAPPGYRPSAWVHLLHQLPRADFQLRPVPSGFAPRDQEYQQALLLVAALAGLGLGLSLIFIAVYLIRFCCCRPPEPHGAKSPPPGGGCVTWSCIAALLVGCAGIGIGFYGNSETSDGVSQLSSALLHANHTLSTIDDVVLETVERLGEAVKTELTTLEEVLSVRMELVAATRGARRQAEAAAQYLQGLAFWQGVSLSPVQVAEDVTFVEEYRWLAYVLLLLLVLLVCLFTLLGLAKQSKWLVVVMTAMSLLVLVLSWGSMGLEAATAVGLSDFCSNPDTYVLNLTQEETGLSSDILSYYFLCNQAVSNPFQQRLTLSQRALASIHSQLQGLEREAIPQFSAAQKPLLSLEETLNVTERSFHQLVALLHCRSLHKDYGSALRGLCEDALEGLLFLMLFSLLSAGALATTLCSLPRAWALFPPSDDYDDTDDDDPFNPQESKRFVQWQSSI
Take B4: the “stoichiometry N” value in the data set “SEC” was 4 and 2.

B5: FLAG-tagged mouse TTYH1 (mTTYH1) (natural protein, UniProt Q9D3A9 1-450, looked up)
chain: B4 chain
On to B5, for which, in “native gel or EMSA”, the “stoichiometry N” value was 2 and 4.

B6: mTTYH1-EGFP (C-terminal EGFP fusion of mouse TTYH1), expressed in Xenopus oocytes (natural protein, UniProt Q9D3A9 1-450, looked up)
chain: B4 chain
Regarding B6, in data set [2], the “stoichiometry N” value was 4.
